This passage reports Kd results from paper PMC5576363.

Where a chain is given by its changes, count along the chain named.

In this data set the target is T1, LbuC2c2-WT (Leptotrichia buccalis, UniProt C7NBY4 1-1159).
T1 sequence: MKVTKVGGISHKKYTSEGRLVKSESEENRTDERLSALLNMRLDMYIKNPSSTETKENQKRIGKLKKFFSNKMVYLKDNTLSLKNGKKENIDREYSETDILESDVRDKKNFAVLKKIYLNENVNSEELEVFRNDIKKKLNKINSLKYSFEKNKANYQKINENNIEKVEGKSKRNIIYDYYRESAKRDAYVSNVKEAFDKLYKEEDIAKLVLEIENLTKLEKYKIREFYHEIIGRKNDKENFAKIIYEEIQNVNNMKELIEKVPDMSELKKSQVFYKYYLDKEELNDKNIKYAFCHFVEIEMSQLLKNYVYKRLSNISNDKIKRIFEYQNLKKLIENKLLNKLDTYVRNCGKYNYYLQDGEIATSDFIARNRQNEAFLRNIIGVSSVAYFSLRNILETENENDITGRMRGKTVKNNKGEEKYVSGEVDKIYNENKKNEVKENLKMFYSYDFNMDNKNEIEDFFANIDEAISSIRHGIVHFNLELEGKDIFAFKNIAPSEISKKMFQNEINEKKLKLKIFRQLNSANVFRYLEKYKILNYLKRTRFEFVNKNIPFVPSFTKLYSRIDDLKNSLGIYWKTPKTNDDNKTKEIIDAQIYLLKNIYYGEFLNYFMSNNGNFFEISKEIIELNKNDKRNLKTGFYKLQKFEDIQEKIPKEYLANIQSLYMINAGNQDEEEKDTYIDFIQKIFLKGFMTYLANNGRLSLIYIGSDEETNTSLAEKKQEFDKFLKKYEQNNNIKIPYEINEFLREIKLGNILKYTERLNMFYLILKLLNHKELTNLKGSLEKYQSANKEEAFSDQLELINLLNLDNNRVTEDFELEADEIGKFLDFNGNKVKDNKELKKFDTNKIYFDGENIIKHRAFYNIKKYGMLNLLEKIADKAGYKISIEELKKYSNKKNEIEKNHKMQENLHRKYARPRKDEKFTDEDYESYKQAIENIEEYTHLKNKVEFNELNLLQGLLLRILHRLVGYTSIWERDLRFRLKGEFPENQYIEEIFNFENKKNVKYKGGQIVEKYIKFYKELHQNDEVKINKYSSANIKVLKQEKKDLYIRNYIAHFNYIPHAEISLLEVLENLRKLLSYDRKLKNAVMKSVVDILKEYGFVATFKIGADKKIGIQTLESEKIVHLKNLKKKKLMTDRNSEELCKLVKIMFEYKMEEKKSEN
Kind of data set: filter binding.

B1: mature crRNA-A_GG (crLbu_A_GG_AES432) (structured_RNA)
RNA: GGCCACCCCAAAAAUGAAGGGGACUAAAACAGGGGCAGAGAUGAUGACCCU
The molecule B1 showed a Kd of 27.1 ± 7.5 nM.

B2: mature crRNA-A_GA (crLbu_A_mature_GA_SCK340) (structured_RNA)
RNA: B1 RNA with G2A
Turning to B2, the Kd was found to be 4.65 ± 0.6 nM.

In general, Kd refers to the constant that tells how readily two partners part at equilibrium.
